We go through 1 molecule from paper doi:10.1101/2024.07.12.603331 (bioRxiv, 2024).

This test addresses neonatal Fc receptor (FcRn), recombinant ectodomains (UniProt P55899;P61769). Briefly: BLI. (In general: BLI is a label-free optical method that tracks binding on a fibre tip over time.)

Sequence of neonatal Fc receptor (FcRn), recombinant ectodomains (P55899 24-297, chain 1 of 2): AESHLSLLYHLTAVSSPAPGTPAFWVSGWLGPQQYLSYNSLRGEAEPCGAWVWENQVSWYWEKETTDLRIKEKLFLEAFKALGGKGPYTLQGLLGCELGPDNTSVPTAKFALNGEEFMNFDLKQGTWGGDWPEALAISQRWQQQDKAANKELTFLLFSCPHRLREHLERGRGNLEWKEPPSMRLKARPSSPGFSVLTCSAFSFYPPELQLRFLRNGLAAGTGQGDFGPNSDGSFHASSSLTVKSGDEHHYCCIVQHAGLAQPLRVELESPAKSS
Sequence of neonatal Fc receptor (FcRn), recombinant ectodomains (P61769 21-119, chain 2 of 2): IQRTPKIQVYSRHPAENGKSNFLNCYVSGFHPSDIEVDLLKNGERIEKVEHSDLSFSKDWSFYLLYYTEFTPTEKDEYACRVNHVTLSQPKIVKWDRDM

B1: HAstV1 spike protein VP25 (residues S424 to R648) (domain or fragment)
chain: SIPAPGEEFKVVLTFGAPMSPNANNKQTWVNKPLDAPSGHYNVKIAKDVDHYLTMQGFTSIASVDWYTIDFQPSEAPAPIQGLQVLVNSSKKADVYAIKQFVTAQTNNKHQVTSLFLVKVTTGFQVNNYLSYFYRASATGDATTNLLVRGDTYTAGISFTQGGWYLLTNTSIVDGAMPPGWVWNNVELKTNTAYHMDKGLVHLIMPLPESTQMCYEMLTSIPRSR
modifications: biotin (EZ-link NHS-PEG4-Biotin)
As for B1, the Kd came to 0.578 µM.

For orientation: Kd means the free concentration of one partner at which half of the binding sites on the other are occupied at equilibrium, for simple one-to-one binding.
